# Target: T1, HLA-A0201 on T2 cells (human)
# T1 construct: MHC class I molecule on T2 cells; also called HLA-A0201 molecule; HLA-A2
# Assay: T2 cell HLA-A0201 assay, flow cytometry with FITC anti-HLA-A0201 mAb, peptide 100 µM
# Description: Cells were collected by centrifugation of the cell culture at 200 g for 5 minutes. […] The mean fluorescence intensity (MFI) was then detected and analyzed by flow cytometer (BD FACSJazz™) and its software. The fluorescence index (FI) was calculated by using the following formula:
Binder,Average fluorescence intensity,FI (fluorescence index)
"TLISSLRPI (Made by solid phase synthesis, purified by reverse phase HPLC, purity >90%) [wild-type peptide TLISSLRPI]",672,1.99
"TLISSLMPI (Made by solid phase synthesis, purity >90%; also called peptide (a); tumor antigen peptide) [mutant peptide TLISSLMPI]",683,2.04
TMISSLMPI [variant peptide TMISSLMPI],701,2.12
TLISSLMPV [variant peptide TLISSLMPV],714,2.18
TMISSLMPV [variant peptide TMISSLMPV],776,2.46
TMISSLMPL [variant peptide TMISSLMPL],764,2.4
TLISSLMPL [variant peptide TLISSLMPL],692,2.08

# Reference: patent US20200024316A1 (GENOIMMUNE THERAPEUTICS, published 2020)
